Key:
Assay in all cases: activation reporter or marker
[1] = target: T1, PRCCp.V145L peptide on HLA-C*07:01 (human)
T1 peptide: KRKEPLKI

[2] = target: T2, ETNK1p.Q233L peptide on HLA-C*07:01 (human)
T2 peptide: FRLIARLL

[3] = target: T3, WDFY3p.L512H peptide on HLA-A*11:01 (human)
T3 peptide: VMVNHLHKY

[4] = target: T4, RASA3p.A654V peptide on HLA-A*02:01 (human)
T4 peptide: FQVIQPERV

[5] = target: T5, MAN2A2p.R877W peptide on HLA-C*04:01 (human)
T5 peptide: IWDYVNKELA

[6] = target: T6, CDADC1p.R148Q peptide on HLA-A*24:02 (human)
T6 peptide: AGVNQISYW

[7] = target: T7, KBTBD3p.T293A peptide on HLA-B*35:01 (human)
T7 peptide: RPSTAEKYIF

[8] = target: T8, MED12Lp.T462K peptide on HLA-C*07:02 (human)
T8 peptide: SRVLHKLEV

[9] = target: T9, ACEp.V535G peptide on HLA-B*57:01 (human)
T9 peptide: VSFGLQFQF

[10] = target: T10, PAPSS1p.Q144H peptide on HLA-C*07:02 (human)
T10 peptide: ARHIHEGASL

[11] = target: T11, USP34p.S2706F peptide on HLA-C*07:02 (human)
T11 peptide: FRSTRFLHI

[12] = target: T12, FCGRTp.A241T peptide on HLA-C*06:02 (human)
T12 peptide: LRFLRNGLT

[13] = target: T13, STRADAp.M189V peptide on HLA-C*07:01 (human)
T13 peptide: KALDYIHHV

[14] = target: T14, SDK1p.S1290L peptide on HLA-A*02:01 (human)
T14 peptide: SLTQILLTWT

[15] = target: T15, BRPF1p.L634F peptide on HLA-A*24:02 (human)
T15 peptide: EMQLTPFFI

[16] = target: T16, STRADAp.M189V peptide on HLA-A*01:01 (human)
T16 peptide: ALDYIHHVGYV

B1: TCR775 (TCR, V domains shown)
Valpha: GQNIDQPTEMTATEGAIVQINCTYQTSGFNGLFWYQQHAGEAPTFLSYNVLDGLEEKGRFSSFLSRSKGYSYLLLKELQMKDSASYLCAAHSGGYQKVTFGTGTKLQVIP
Vbeta: EPEVTQTPSHQVTQMGQEVILRCVPISNHLYFYWYRQILGQKVEFLVSFYNNEISEKSEIFDDQFSVERPDGSNFTLKIRSTKLEDSAMYFCASSEDEQEYSYEQYFGPGTRLTVT
binding result [1]: recognises

B2: TCR1285 (TCR, V domains shown)
Valpha: DAKTTQPPSMDCAEGRAANLPCNHSTISGNEYVYWYRQIHSQGPQYIIHGLKNNETNEMASLIITEDRKSSTLILPHATLRDTAVYYCIVRLAPYSGNTPLVFGKGTRLSVIA
Vbeta: DAGVTQSPTHLIKTRGQQVTLRCSPKSGHDTVSWYQQALGQGPQFIFQYYEEEERQRGNFPDRFSGHQFPNYSSELNVNALLLGDSALYLCASISGFMGLMNTEAFFGQGTRLTVV
binding result [2]: recognises

B3: TCR720 (TCR, V domains shown)
Valpha: LAKTTQPISMDSYEGQEVNITCSHNNIATNDYITWYQQFPSQGPRFIIQGYKTKVTNEVASLFIPADRKSSTLSLPRVSLSDTAVYYCLVIEAGNNRKLIWGLGTSLAVNP
Vbeta: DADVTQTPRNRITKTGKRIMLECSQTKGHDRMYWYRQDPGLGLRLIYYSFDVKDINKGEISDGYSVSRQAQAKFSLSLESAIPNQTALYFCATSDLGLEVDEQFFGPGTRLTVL
binding result [3]: recognises

B4: TCR1312 (TCR, V domains shown)
Valpha: QKEVEQNSGPLSVPEGAIASLNCTYSDRGSQSFFWYRQYSGKSPELIMFIYSNGDKEDGRFTAQLNKASQYVSLLIRDSQPSDSATYLCAVNRAGGSYIPTFGRGTSLIVHP
Vbeta: DAGVIQSPRHEVTEMGQEVTLRCKPISGHDYLFWYRQTMMRGLELLIYFNNNVPIDDSGMPEDRFSAKMPNASFSTLKIQPSEPRDSAVYFCASSQGQGVLGMKKLFFGSGTQLSVL
binding result [4]: recognises

B5: TCR721 (TCR, V domains shown)
Valpha: AQKVTQAQTEISVVEKEDVTLDCVYETRDTTYYLFWYKQPPSGELVFLIRRNSFDEQNEISGRYSWNFQKSTSSFNFTITASQVVDSAVYFCALSEATGFGNEKLTFGTGTRLTIIP
Vbeta: DAGITQSPRHKVTETGTPVTLRCHQTENHRYMYWYRQDPGHGLRLIHYSYGVKDTDKGEVSDGYSVSRSKTEDFLLTLESATSSQTSVYFCAISDPRDSYEQYFGPGTRLTVT
binding result [5]: recognises

B6: TCR1057 (TCR, V domains shown)
Valpha: GENVEQHPSTLSVQEGDSAVIKCTYSDSASNYFPWYKQELGKRPQLIIDIRSNVGEKKDQRIAVTLNKTAKHFSLHITETQPEDSAVYFCAASRGPAGGTSYGKLTFGQGTILTVHP
Vbeta: DTEVTQTPKHLVMGMTNKKSLKCEQHMGHRAMYWYKQKAKKPPELMFVYSYEKLSINESVPSRFSPECPNSSLLNLHLHALQPEDSALYLCASSQDAWWLSQPQHFGDGTRLSIL
binding result [6]: recognises

B7: TCR1364 (TCR, V domains shown)
Valpha: GQNIDQPTEMTATEGAIVQINCTYQTSGFNGLFWYQQHAGEAPTFLSYNVLDGLEEKGRFSSFLSRSKGYSYLLLKELQMKDSASYLCAVKGDYKLSFGAGTTVTVRA
Vbeta: DTGVSQNPRHKITKRGQNVTFRCDPISEHNRLYWYRQTLGQGPEFLTYFQNEAQLEKSRLLSDRFSAERPKGSFSTLEIQRTEQGDSAMYLCASSDRSYNEQFFGPGTRLTVL
binding result [7]: recognises

B8: TCR915 (TCR, V domains shown)
Valpha: AQKVTQAQTEISVVEKEDVTLDCVYETRDTTYYLFWYKQPPSGELVFLIRRNSFDEQNEISGRYSWNFQKSTSSFNFTITASQVVDSAVYFCALSDHNTDKLIFGTGTRLQVFP
Vbeta: NAGVTQTPKFRILKIGQSMTLQCTQDMNHNYMYWYRQDPGMGLKLIYYSVGAGITDKGEVPNGYNVSRSTTEDFPLRLELAAPSQTSVYFCASISDSYNEQFFGPGTRLTVL
binding result [8]: recognises

B9: TCR901 (TCR, V domains shown)
Valpha: QKEVEQDPGPLSVPEGAIVSLNCTYSNSAFQYFMWYRQYSRKGPELLMYTYSSGNKEDGRFTAQVDKSSKYISLFIRDSQPSDSATYLCAMTRGGGGNKLTFGTGTQLKVEL
Vbeta: NAGVTQTPKFRVLKTGQSMTLLCAQDMNHEYMYWYRQDPGMGLRLIHYSVGEGTTAKGEVPDGYNVSRLKKQNFLLGLESAAPSQTSVYFCASSYGGPEQFFGPGTRLTVL
binding result [9]: recognises

B10: TCR952 (TCR, V domains shown)
Valpha: SQQGEEDPQALSIQEGENATMNCSYKTSINNLQWYRQNSGRGLVHLILIRSNEREKHSGRLRVTLDTSKKSSSLLITASRAADTASYFCATDEVGDMRFGAGTRLTVKP
Vbeta: EPEVTQTPSHQVTQMGQEVILRCVPISNHLYFYWYRQILGQKVEFLVSFYNNEISEKSEIFDDQFSVERPDGSNFTLKIRSTKLEDSAMYFCAISGSLYNEQFFGPGTRLTVL
binding result [10]: recognises

B11: TCR903 (TCR, V domains shown)
Valpha: AQKVTQAQTEISVVEKEDVTLDCVYETRDTTYYLFWYKQPPSGELVFLIRRNSFDEQNEISGRYSWNFQKSTSSFNFTITASQVVDSAVYFCALSEETDRGSTLGRLYFGRGTQLTVWP
Vbeta: DTAVSQTPKYLVTQMGNDKSIKCEQNLGHDTMYWYKQDSKKFLKIMFSYNNKELIINETVPNRFSPKSPDKAHLNLHINSLELGDSAVYFCASSQDGGFEQFFGPGTRLTVL
binding result [11]: recognises

B12: TCR1059 (TCR, V domains shown)
Valpha: SQQGEEDPQALSIQEGENATMNCSYKTSINNLQWYRQNSGRGLVHLILIRSNEREKHSGRLRVTLDTSKKSSSLLITASRAADTASYFCATDEGNFVFGPGTRLSVLP
Vbeta: NAGVTQTPKFQVLKTGQSMTLQCAQDMNHEYMSWYRQDPGMGLRLIHYSVGAGITDQGEVPNGYNVSRSTTEDFPLRLLSAAPSQTSVYFCASSPGQRETQYFGPGTRLLVL
binding result [12]: recognises

B13: TCR827 (TCR, V domains shown)
Valpha: GQQVMQIPQYQHVQEGEDFTTYCNSSTTLSNIQWYKQRPGGHPVFLIQLVKSGEVKKQKRLTFQFGEAKKNSSLHITATQTTDVGTYFCAAPDAGGTSYGKLTFGQGTILTVHP
Vbeta: NAGVTQTPKFQVLKTGQSMTLQCAQDMNHEYMSWYRQDPGMGLRLIHYSVGAGITDQGEVPNGYNVSRSTTEDFPLRLLSAAPSQTSVYFCASSPLNPYNEQFFGPGTRLTVL
binding result [13]: recognises

B14: TCR1036 (TCR, V domains shown)
Valpha: RKEVEQDPGPFNVPEGATVAFNCTYSNSASQSFFWYRQDCRKEPKLLMSVYSSGNEDGRFTAQLNRASQYISLLIRDSKLSDSATYLCVVNMYNQGGKLIFGQGTELSVKP
Vbeta: NAGVTQTPKFQVLKTGQSMTLQCAQDMNHEYMSWYRQDPGMGLRLIHYSVGAGITDQGEVPNGYNVSRSTTEDFPLRLLSAAPSQTSVYFCASSYSGPNYEQYFGPGTRLTVT
binding result [14]: recognises

B15: TCR955 (TCR, V domains shown)
Valpha: AQTVTQSQPEMSVQEAETVTLSCTYDTSESDYYLFWYKQPPSRQMILVIRQEAYKQQNATENRFSVNFQKAAKSFSLKISDSQLGDAAMYFCAYRRRNSGYALNFGKGTSLLVTP
Vbeta: DAGVTQSPTHLIKTRGQQVTLRCSPKSGHDTVSWYQQALGQGPQFIFQYYEEEERQRGNFPDRFSGHQFPNYSSELNVNALLLGDSALYLCASSLRVWSSYEQYFGPGTRLTVT
binding result [15]: recognises

B16: TCR829 (TCR, V domains shown)
Valpha: QKEVEQDPGPLSVPEGAIVSLNCTYSNSAFQYFMWYRQYSRKGPELLMYTYSSGNKEDGRFTAQVDKSSKYISLFIRDSQPSDSATYLCAMSPTYSGAGSYQLTFGKGTKLSVIP
Vbeta: GAVVSQHPSWVICKSGTSVKIECRSLDFQATTMFWYRQFPKQSLMLMATSNEGSKATYEQGVEKDKFLINHASLTLSTLTVTSAHPEDSSFYICSASLLGEGYEQYFGPGTRLTVT
binding result [16]: recognises
